Target: HeV PNT3 (aa 200-310 of the Hendra virus P/V protein) (Hendra virus) (UniProt O55778)
Assay: SAXS

**Q.** For “HeV PNT3 (aa 200-310 of the Hendra virus P/V protein) (from UniProt O55778 200-310) (domain or fragment)”, which stoichiometry N is on record?
**A.** 100 monomers

From doi:10.1101/497024
